*1 amine or outer side, *2 acyl side, *3 side chain or, on linkers, in order; H or OH if unused. Bridges are numbered along the chain shown (N, C = ends). Where no end group is shown, it is not given here. [ ]: non-standard residue; d: D form. The star is where a group is joined. DOTA = O=C(O)CN1CCN(CC(=O)O)CCN(CC(=O)*)CCN(CC(=O)O)CC1; N(2-mercaptoethyl)Gly = O=C(CN(CCS[*:3])[*:1])[*:2]; Glutaryl = O=C(CCCC(=O)[*:2])[*:1]; 4Amb = NCc1ccc(C(=O)O)cc1; Orn = NCCC[C@H](N)C(=O)O; Aoc = NCCCCCCCC(=O)O; CPT = camptothecin

What all share (test): 125I-Tyr11-SRIF-14 displacement
Experiment [1] addresses human cloned somatostatin receptor 3 (human) (UniProt P32745).
In experiment [2] the target is human cloned somatostatin receptor 1 (human) (UniProt P30872).
The target of experiment [3] is human cloned somatostatin receptor 2 (human) (UniProt P30874).
Experiment [4] deals with human cloned somatostatin receptor 5 (human) (UniProt P35346).
The target of experiment [5] is human cloned somatostatin receptor 4 (human) (UniProt P31391).
Sequence of human cloned somatostatin receptor 4 (human) (P31391 whole entry): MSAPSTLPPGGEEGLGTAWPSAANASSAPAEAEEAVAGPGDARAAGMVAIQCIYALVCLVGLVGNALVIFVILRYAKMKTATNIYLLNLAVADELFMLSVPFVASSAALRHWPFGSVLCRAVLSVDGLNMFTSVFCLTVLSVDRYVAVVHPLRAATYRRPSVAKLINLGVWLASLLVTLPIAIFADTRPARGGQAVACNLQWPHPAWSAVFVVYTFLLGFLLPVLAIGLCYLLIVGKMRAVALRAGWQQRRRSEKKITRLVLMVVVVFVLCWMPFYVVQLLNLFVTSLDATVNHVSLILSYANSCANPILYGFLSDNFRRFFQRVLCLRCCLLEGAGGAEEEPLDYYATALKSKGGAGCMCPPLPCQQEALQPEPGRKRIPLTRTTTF

Sequence of human cloned somatostatin receptor 5 (human) (P35346 whole entry): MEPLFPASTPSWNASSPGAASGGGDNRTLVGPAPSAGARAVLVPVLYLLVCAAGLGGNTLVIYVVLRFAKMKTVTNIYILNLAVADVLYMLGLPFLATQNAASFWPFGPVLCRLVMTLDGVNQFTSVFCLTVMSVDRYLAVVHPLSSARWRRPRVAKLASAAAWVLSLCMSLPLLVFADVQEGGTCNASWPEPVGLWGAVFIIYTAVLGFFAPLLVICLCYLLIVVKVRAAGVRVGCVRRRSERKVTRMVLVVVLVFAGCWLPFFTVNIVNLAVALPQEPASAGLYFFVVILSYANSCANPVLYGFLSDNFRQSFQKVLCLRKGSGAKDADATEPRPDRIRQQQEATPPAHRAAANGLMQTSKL
Sequence of human cloned somatostatin receptor 3 (human) (P32745 whole entry): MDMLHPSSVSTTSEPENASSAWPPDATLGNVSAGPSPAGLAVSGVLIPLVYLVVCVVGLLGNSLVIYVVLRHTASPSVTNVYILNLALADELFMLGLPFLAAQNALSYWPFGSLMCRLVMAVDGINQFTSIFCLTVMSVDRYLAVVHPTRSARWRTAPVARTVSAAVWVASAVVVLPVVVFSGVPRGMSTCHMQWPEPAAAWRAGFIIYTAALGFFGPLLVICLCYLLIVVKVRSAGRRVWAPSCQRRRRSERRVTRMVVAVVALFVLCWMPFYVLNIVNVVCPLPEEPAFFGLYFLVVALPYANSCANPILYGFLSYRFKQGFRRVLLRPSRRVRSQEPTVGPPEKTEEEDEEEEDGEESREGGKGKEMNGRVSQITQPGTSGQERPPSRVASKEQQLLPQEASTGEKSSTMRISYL
Sequence of human cloned somatostatin receptor 2 (human) (P30874 whole entry): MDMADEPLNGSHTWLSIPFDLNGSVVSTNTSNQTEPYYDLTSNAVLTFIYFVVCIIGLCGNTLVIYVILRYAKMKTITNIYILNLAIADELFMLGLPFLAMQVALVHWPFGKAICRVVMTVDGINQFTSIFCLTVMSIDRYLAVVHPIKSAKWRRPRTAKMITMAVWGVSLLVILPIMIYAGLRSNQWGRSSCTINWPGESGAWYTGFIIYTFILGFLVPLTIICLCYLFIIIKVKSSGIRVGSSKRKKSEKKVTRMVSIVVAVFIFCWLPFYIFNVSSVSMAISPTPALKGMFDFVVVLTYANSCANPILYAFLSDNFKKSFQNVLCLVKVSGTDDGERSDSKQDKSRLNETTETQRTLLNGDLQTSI
Sequence of human cloned somatostatin receptor 1 (human) (P30872 whole entry): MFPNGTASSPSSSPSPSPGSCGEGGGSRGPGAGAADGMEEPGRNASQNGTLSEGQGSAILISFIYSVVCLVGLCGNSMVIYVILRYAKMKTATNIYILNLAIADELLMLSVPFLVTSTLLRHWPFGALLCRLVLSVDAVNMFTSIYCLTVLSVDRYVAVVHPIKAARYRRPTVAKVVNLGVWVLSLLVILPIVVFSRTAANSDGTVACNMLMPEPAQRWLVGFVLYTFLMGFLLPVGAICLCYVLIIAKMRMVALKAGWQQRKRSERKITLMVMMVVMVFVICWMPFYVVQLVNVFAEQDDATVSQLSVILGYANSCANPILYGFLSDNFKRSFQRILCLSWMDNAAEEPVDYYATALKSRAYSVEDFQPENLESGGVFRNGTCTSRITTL

B1: SEQ ID NO: 22 (peptide)
peptide: {DOTA}-[dF]EE[Orn]CF[dW]KTF[N(2-mercaptoethyl)Gly]-NH2
modifications: disulfide 5-11
SMILES: C[C@@H](O)[C@@H]1NC(=O)[C@H](CCCCN)NC(=O)[C@@H](Cc2c[nH]c3ccccc23)NC(=O)[C@H](Cc2ccccc2)NC(=O)[C@@H](NC(=O)[C@H](CCCN)NC(=O)[C@H](CCC(=O)O)NC(=O)[C@H](CCC(=O)O)NC(=O)[C@@H](Cc2ccccc2)NC(=O)CN2CCN(CC(=O)O)CCN(CC(=O)O)CCN(CC(=O)O)CC2)CSSCCN(CC(N)=O)C(=O)[C@H](Cc2ccccc2)NC1=O
For the molecule B1, the % displacement at 1 nM in experiment [1] was 0%; in experiment [2], 8%; in experiment [3] it was 0%; in experiment [4], 0%; in experiment [5], 0%. The % displacement at 10 nM in experiment [1] amounted to 49%; in experiment [2] it was 7%; in experiment [3], 0%; in experiment [4], 0%; in experiment [5], 3%.

B2: SEQ ID NO: 16 (peptide)
peptide: K[dF]RCF[dW]KTF[N(2-mercaptoethyl)Gly]-NH2
modifications: disulfide 4-10; not fully specified (residue 1, N-terminus); printed as (DOTA)2-Lys1-D-Phe2-Arg3-Cys4-Phe5-D-Trp6-Lys7-Thr8-Phe9-NTEG10-NH2 (cyclo 3-9); also: (DOTA)2 on Lys1, sites not given here
With B2, the % displacement at 1 nM is 47% in experiment [1]; 0% in experiment [2]; 6% in experiment [3]; 0% in experiment [4]; 0% in experiment [5]. Moreover, the % displacement at 10 nM in experiment [1] was found to be 88%; in experiment [2], 5%; in experiment [3], 2%; in experiment [4], 3%; in experiment [5], 0%.

B3: SEQ ID NO: 23 (peptide)
peptide: {DOTA}-[dF]E[Orn]CF[dW]KTF[N(2-mercaptoethyl)Gly]-NH2
modifications: disulfide 4-10
SMILES: C[C@@H](O)[C@@H]1NC(=O)[C@H](CCCCN)NC(=O)[C@@H](Cc2c[nH]c3ccccc23)NC(=O)[C@H](Cc2ccccc2)NC(=O)[C@@H](NC(=O)[C@H](CCCN)NC(=O)[C@H](CCC(=O)O)NC(=O)[C@@H](Cc2ccccc2)NC(=O)CN2CCN(CC(=O)O)CCN(CC(=O)O)CCN(CC(=O)O)CC2)CSSCCN(CC(N)=O)C(=O)[C@H](Cc2ccccc2)NC1=O
For the molecule B3, the % displacement at 1 nM was determined as 19% in experiment [1]; 4% in experiment [2]; 0% in experiment [3]; 0% in experiment [4]; 0% in experiment [5]. Further, the % displacement at 10 nM in experiment [1] was 56%; in experiment [2] it was 6%; in experiment [3] it was 0%; in experiment [4], 0%; in experiment [5], 0%.
Consider {DOTA-4Amb}-[dF]RCF[dW]KTF[N(2-mercaptoethyl)Gly]-NH2 (disulfide 3-9) [SEQ ID NO: 18], for which the % displacement at 1 nM is 49% in experiment [1]; 0% in experiment [2]; 0% in experiment [3]; 0% in experiment [4]; 0% in experiment [5]. Also, the % displacement at 10 nM is 85% in experiment [1]; 4% in experiment [2]; 0% in experiment [3]; 0% in experiment [4]; 8% in experiment [5].

B4: SEQ ID NO: 20 (peptide)
peptide: {DOTA}-F[dF]RCF[dW]KTF[N(2-mercaptoethyl)Gly]-NH2
modifications: disulfide 4-10
SMILES: C[C@@H](O)[C@@H]1NC(=O)[C@H](CCCCN)NC(=O)[C@@H](Cc2c[nH]c3ccccc23)NC(=O)[C@H](Cc2ccccc2)NC(=O)[C@@H](NC(=O)[C@H](CCCNC(=N)N)NC(=O)[C@@H](Cc2ccccc2)NC(=O)[C@H](Cc2ccccc2)NC(=O)CN2CCN(CC(=O)O)CCN(CC(=O)O)CCN(CC(=O)O)CC2)CSSCCN(CC(N)=O)C(=O)[C@H](Cc2ccccc2)NC1=O
With B4, the % displacement at 1 nM came to 66% in experiment [1]; 8% in experiment [2]; 0% in experiment [3]; 0% in experiment [4]; 0% in experiment [5]. Moreover, the % displacement at 10 nM in experiment [1] is 95%; in experiment [2], 14%; in experiment [3], 2%; in experiment [4], 0%; in experiment [5] it was 0%.
For {CPT-Aoc}-[dF]RCF[dW]KTF[N(2-mercaptoethyl)Gly]-NH2 (disulfide 3-9) [SEQ ID NO: 27], the % displacement at 1 nM in experiment [1] came to 12%; in experiment [2], 0%; in experiment [3], 0%; in experiment [4] it was 0%; in experiment [5], 0%. The % displacement at 10 nM in experiment [1] came out at 51%; in experiment [2] it was 3%; in experiment [3], 0%; in experiment [4], 0%; in experiment [5] it was 0%.
On to {DOTA}-[dF][Orn]CF[dW]KTF[N(2-mercaptoethyl)Gly]-NH2 (disulfide 3-9) [SEQ ID NO: 21], for which the % displacement at 1 nM in experiment [1] is 59%; in experiment [2] it was 23%; in experiment [3] it was 0%; in experiment [4] it was 0%; in experiment [5] it was 9%. The % displacement at 10 nM was determined as 93% in experiment [1]; 22% in experiment [2]; 2% in experiment [3]; 0% in experiment [4]; 9% in experiment [5].

B5: SEQ ID NO: 26 (peptide)
peptide: H-XRCF[dW]KTY[N(2-mercaptoethyl)Gly]-NH2
modifications: disulfide 3-9; not fully specified (residue 1); printed as H-Phe1-Arg2-Cys3-Phe4-D-Trp5-Lys6-Thr7-Tyr8-NTEG9-NH2 (cyclo 3-9)
For the molecule B5, the % displacement at 1 nM in experiment [1] was found to be 53%; in experiment [2], 0%; in experiment [3], 0%; in experiment [4], 0%; in experiment [5] it was 0%. For the same molecule, the % displacement at 10 nM in experiment [1] is 86%; in experiment [2] it was 24%; in experiment [3], 0%; in experiment [4] it was 1%; in experiment [5], 0%.
Turning to {DOTA-Aoc}-[dF]RCF[dW]KTF[N(2-mercaptoethyl)Gly]-NH2 (disulfide 3-9) [SEQ ID NO: 15], the % displacement at 1 nM stood at 49% in experiment [1]; 6% in experiment [2]; 1% in experiment [3]; 0% in experiment [4]; 0% in experiment [5]. For the same molecule, the % displacement at 10 nM stood at 87% in experiment [1]; 18% in experiment [2]; 0% in experiment [3]; 0% in experiment [4]; 0% in experiment [5].

B6: SEQ ID NO: 25 (peptide)
peptide: {DOTA}-[dF]RCY[dW]KTF[N(2-mercaptoethyl)Gly]-NH2
modifications: disulfide 3-9
SMILES: C[C@@H](O)[C@@H]1NC(=O)[C@H](CCCCN)NC(=O)[C@@H](Cc2c[nH]c3ccccc23)NC(=O)[C@H](Cc2ccc(O)cc2)NC(=O)[C@@H](NC(=O)[C@H](CCCNC(=N)N)NC(=O)[C@@H](Cc2ccccc2)NC(=O)CN2CCN(CC(=O)O)CCN(CC(=O)O)CCN(CC(=O)O)CC2)CSSCCN(CC(N)=O)C(=O)[C@H](Cc2ccccc2)NC1=O
Consider B6, for which the % displacement at 1 nM was 65% in experiment [1]; 1% in experiment [2]; 0% in experiment [3]; 6% in experiment [4]; 5% in experiment [5]. The % displacement at 10 nM in experiment [1] is 94%; in experiment [2], 15%; in experiment [3] it was 0%; in experiment [4] it was 16%; in experiment [5], 8%.
For the molecule {Niraparib-Glutaryl}-[dF]RCF[dW]KTF[N(2-mercaptoethyl)Gly]-NH2 (disulfide 3-9) [SEQ ID NO: 28], the % displacement at 1 nM was found to be 28% in experiment [1]; 12% in experiment [2]; 0% in experiment [3]; 0% in experiment [4]; 0% in experiment [5]. Further, the % displacement at 10 nM in experiment [1] was determined as 79%; in experiment [2], 23%; in experiment [3], 0%; in experiment [4], 0%; in experiment [5], 0%.

(Values after US20240165282A1, “CONFORMATIONAL CONSTRAINED SOMATOSTATIN RECEPTOR 3 PEPTIDE LIGANDS AND THEIR CONJUGATES AND USES THEREOF” (STARGET PHARMA LTD., priority 2021, published 2024).)
